Measurements as given in patent US20140094415A1.
Like-named read-outs stand apart in the source and are kept apart here. Where no end group is shown, it is not given here.

B1: 5-FAM-labeled NPEG4(IETAV)2 probe, AB143 (peptide)
peptide: IETAV
modifications: also: dimer: two IETAV chains on NPEG4 scaffold, 5-FAM label, position not given here

Columns and labels:
[1] = target: T1, HIS-PDZ1-2 protein (PSD-95 PDZ1-2 tandem) (human), P78352; assay: fluorescence polarization, saturation binding: increasing PDZ1-2 on 0.5 nM probe
[2] = target: T1, HIS-PDZ1-2 protein (PSD-95 PDZ1-2 …); assay: fluorescence polarization, heterologous competition against AB143 probe
[3] = target: T1, HIS-PDZ1-2 protein (PSD-95 PDZ1-2 …); assay: as above; remark: listed apart in the source

Kd [1]	Ki [2]	Ki [3]	Binder
7.8 nM	–	–	B1
–	9.5 nM	9.3 nM	IETAV (modifications not checked) [NPEG4(IETAV)2 (AB141)]
–	9.5 nM	–	IETAV (modifications not checked) [PEG4(IETAV)2 (AB125)]
